Experimental findings from JP2006306895A (dated 2006) are described below.

Changes are numbered by the printed parent chain.

The chains are these.
B1: ヒト型化#23-57-137-1抗体 L鎖バージョン"j" (antibody, V domains shown)
VH: QVQLVESGGGVVQPGRSLRLSCAASGFTFSSYGMSWVRQAPGKGLEWVATISSGGSYTYYPDSVKGRFTISRDNSKNTLYLQMNSLRAEDTAVYYCARQTTMTYFAYWGQGTLVTVSS
VL: QLVLTQSPSASASLGASVKLTCTLSSQHSTYTIEWYQQQPEKGPKYLMDLKQDGSHSTGDGIPDRFSGSSSGAERYLTISSLQSEDEADYYCGVGDTIKEQFVYVFGGGTKLTVLG
notes: Humanized H chain version a with human Cγ1; human lambda L chain C region; also called hMBC1HcDNA/pCOS1 + hMBC1Ljλ/pCOS1; version j
B2: ヒト型化#23-57-137-1抗体 L鎖バージョン"m" (antibody, V domains shown)
VH: B1 VH
VL: B1 VL with K45R
notes: Humanized H chain version a with human Cγ1; human lambda L chain C region; also called hMBC1HcDNA/pCOS1 + hMBC1Lmλ/pCOS1; version m
B3: ヒト型化#23-57-137-1抗体 L鎖バージョン"q" (antibody, V domains shown)
VH: B1 VH
VL: B1 VL with Y91I
notes: Humanized H chain version a with human Cγ1; human lambda L chain C region; also called ヒト型化抗体バージョンq; hMBC1HcDNA/pCOS1 + hMBC1Lqλ/pCOS1
B4: ヒト型化#23-57-137-1抗体 L鎖バージョン"l" (antibody, V domains shown)
VH: B1 VH
VL: B1 VL with L47V
notes: Humanized H chain version a with human Cγ1; human lambda L chain C region; also called hMBC1HcDNA/pCOS1 + hMBC1Llλ/pCOS1; version l
B5: ヒト型化#23-57-137-1抗体 L鎖バージョン"o" (antibody, V domains shown)
VH: B1 VH
VL: B1 VL with K45R, L47V
notes: Humanized H chain version a with human Cγ1; human lambda L chain C region; also called hMBC1HcDNA/pCOS1 + hMBC1Loλ/pCOS1; version o
B6: ヒト型化#23-57-137-1抗体 L鎖バージョン"t" (antibody, V domains shown)
VH: B1 VH
VL: B1 VL with K45R, L47V, Y91I
notes: Humanized H chain version a with human Cγ1; human lambda L chain C region; also called hMBC1HcDNA/pCOS1 + hMBC1Ltλ/pCOS1; version t
B7: ヒト型化H鎖バージョン"a"とキメラL鎖を組み合わせた抗体 (antibody, V domains shown)
VH: B1 VH
VL: QLVLTQSSSASFSLGASAKLTCTLSSQHSTYTIEWYQQQPLKPPKYVMDLKQDGSHSTGDGIPDRFSGSSSGADRYLSISNIQPEDEAMYICGVGDTIKEQFVYVFGGGTKVTVLG
notes: Human Cγ1 H chain C region; also called humanized H chain version a + chimeric L chain

For this experiment, the target named is T1, ヒトPTHrP(1-34) (human).
T1 construct: Synthetic peptide, coated on ELISA plates (Peptide Institute) or mixed with antibody in the cAMP neutralisation assay; also called human parathyroid hormone related protein (1-34)
Nature of the experiment: ELISA, plate-coated human PTHrP(1-34). In general terms: An ELISA detects its analyte on a solid surface through an enzyme-linked reagent.
For the molecule B1, the binding result is given as “binds”.

On to B2, for which the binding result is “binds”.

For the molecule B3, the binding result was “binds”.

In the case of B4, the binding result was “binds”.

For B5, the binding result was “binds”.

B6: the binding result was “binds”.

As for B7, the binding result is “binds”.
